Patent publication US20220235140A1 (HEDGEHOG, published 2022)

Biological target: T1, human endothelin receptor type A (human, UniProt P25101 21-427, limits assumed)
T1 construct: Immobilized on plates coated with human Galpha-i3 such that its extracellular regions were selectively exposed; also called ETA
T1 sequence (looked up): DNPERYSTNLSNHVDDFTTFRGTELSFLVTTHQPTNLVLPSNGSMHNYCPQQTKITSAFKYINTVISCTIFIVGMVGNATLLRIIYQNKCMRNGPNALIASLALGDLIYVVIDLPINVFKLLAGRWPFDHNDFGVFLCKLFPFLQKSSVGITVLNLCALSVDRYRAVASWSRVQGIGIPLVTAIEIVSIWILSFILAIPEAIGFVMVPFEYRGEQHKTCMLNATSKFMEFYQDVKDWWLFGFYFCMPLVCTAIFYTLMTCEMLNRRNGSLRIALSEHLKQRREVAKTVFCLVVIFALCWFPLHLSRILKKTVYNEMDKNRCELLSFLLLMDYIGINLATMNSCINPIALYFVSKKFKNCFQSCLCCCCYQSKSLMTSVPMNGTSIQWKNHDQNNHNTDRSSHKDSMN
Assay: ELISA, ETA immobilized via human Galpha-i3, antibody titrated

- Kd: 26.1 nM
B1: AG8 (antibody, V domains shown)
VH: EVQLVESGAEVRKPGASVKVSCKASGYTFTSSDINWIRQATGQGLEWMGYMNPKNGNTDYAQKFQGRISMTRDSSISTAYMELSSLRSEDTAVYYCAKDRYGSGTYGFGMDVWGPGTLVT
VL: DIVMTQSPSAMSASVGDRVSITCRASQGINNYLAWFQQKPGKVPKRLMDVGSILQSGIPSRFRGRGSGTQFTLTISSLQAEDSGTYFCLQHNTYPLTFGPGTKVEIKR
